Here are results for one variant from IntAct's records for PubMed 17190814.

B1: Antiviral innate immune response receptor RIG-I (Homo sapiens), O95786-1 (parent)
chain: MTTEQRRSLQAFQDYIRKTLDPTYILSYMAPWFREEEVQYIQAEKNNKGPMEAATLFLKFLLELQEEGWFRGFLDALDHAGYSGLYEAIESWDFKKIEKLEEYRLLLKRLQPEFKTRIIPTDIISDLSECLINQECEEILQICSTKGMMAGAEKLVECLLRSDKENWPKTLKLALEKERNKFSELWIVEKGIKDVETEDLEDKMETSDIQIFYQEDPECQNLSENSCPPSEVSDTNLYSPFKPRNYQLELALPAMKGKNTIICAPTGCGKTFVSLLICEHHLKKFPQGQKGKVVFFANQIPVYEQQKSVFSKYFERHGYRVTGISGATAENVPVEQIVENNDIIILTPQILVNNLKKGTIPSLSIFTLMIFDECHNTSKQHPYNMIMFNYLDQKLGGSSGPLPQVIGLTASVGVGDAKNTDEALDYICKLCASLDASVIATVKHNLEELEQVVYKPQKFFRKVESRISDKFKYIIAQLMRDTESLAKRICKDLENLSQIQNREFGTQKYEQWIVTVQKACMVFQMPDKDEESRICKALFLYTSHLRKYNDALIISEHARMKDALDYLKDFFSNVRAAGFDEIEQDLTQRFEEKLQELESVSRDPSNENPKLEDLCFILQEEYHLNPETITILFVKTRALVDALKNWIEGNPKLSFLKPGILTGRGKTNQNTGMTLPAQKCILDAFKASGDHNILIATSVADEGIDIAQCNLVILYEYVGNVIKMIQTRGRGRARGSKCFLLTSNAGVIEKEQINMYKEKMMNDSILRLQTWDEAVFREKILHIQTHEKFIRDSQEKPKPVPDKENKKLLCRKCKALACYTADVRVIEECHYTVLGDAFKECFVSRPHPKPKQFSSFEKRAKIFCARQNCSHDWGIHVKYKTFEIPVIKIESFVVEDIATGVQTLYSKWKDFHFEKIPFDPAEMSK

In this assay the parent is B1. Particulars: with MAVS.
Consider T55I, for which the “effect of a mutation on the interaction” value is “decreasing interaction strength”.
